From the RNAGym collection of RNA variant scans (doi:10.7554/elife.90254)

B1: LINE1-full (parent)
chain: UACGUAGGUGGUUUUCCCCUGAUAGUGCUAAGGGGGCCUGGAAGUUUGGACUGGGCAGAGCUCAACACAGCGUGGCAAAGUGGCUGUGGCUAGACUGCCUCUCUGGAUUCCUCGUCACUCAGCAGGGCAUCUCUGAGAGAAAUGCC

Variants of: B1
Test: self-cleavage, relative activity (ratio to wild type); higher = more cleavage; in vitro, sequencing; the parent is a self-cleaving ribozyme

Variant | self-cleavage
AACGUAGGUGGUUUUCCCCUGAUAGUGCUAAGGGGGCCUGGAAGUUUGGACUGGGCAGAGCUCAACACAGCGUGGCAAAGUGGCUGUGGCUAGACUGCCUCUCUGGAUUCCUCGUCUCUCAGCAGGGCAUCUCUGAGAGAAAUGCC [U1A A117U] | 1.48
AACGUAGGUGGUUUUCCCCUGAUAGUGCUAAGGGGGCCUGGAAGUUUGGACUGGGCAGAGCUCAACACAGCGAGGCAAAGUGGCUGUGGCUAGACUGCCUCUCUGGAUUCCUCGUCACUCAGCAGGGCAUCUCUGAGAGAAAUGCC [U1A U73A] | 1.67
AACGUAGGUGGUCUUCCCCUGAUAGUGCUAAGGGGGCCUGGAAGUUUGGACUGGGCAGAGCUCAACACAGCGUGGCAAAGUGGCUGUGGCUAGACUGCCUCUCUGGAUUCCUCGUCACUCAGCAGGGCAUCUCUGAGAGAAAUGCC [U1A U13C] | 0.91
AACGUAGGUGGUUUUCCCCUGAUAGUGCUAAGGGGGCCUGGAAGUUUGGACUGGGCAGAGCUCAACACAGCGUGGCAAAGUGGCUGUGGCUAGACUACCUCUCUGGAUUCCUCGUCACUCAGCAGGGCAUCUCUGAGAGAAAUGCC [U1A G97A] | 0.38
AACGUAGGUGGUUUUCCCCUGAUAGUGCUAAGGGGGCCUGGAAGUUUGGACUGGGCAGAGCUCAACACAGCGUGGCAAGGUGGCUGUGGCUAGACUGCCUCUCUGGAUUCCUCGUCACUCAGCAGGGCAUCUCUGAGAGAAAUGCC [U1A A79G] | 1.31
AACGUAGGUGGUUUUCCCCUGAUAGUGCUAAGGGGGCCUGGAAGUUUGGACUGGGCAGAGCUCAACACAGCGUGGCAAUGUGGCUGUGGCUAGACUGCCUCUCUGGAUUCCUCGUCACUCAGCAGGGCAUCUCUGAGAGAAAUGCC [U1A A79U] | 0.91
AACGUAGGUGGUUUUCCCCUGAUAGUGCUAAGGGGGCCUGGAAGUUUGGGCUGGGCAGAGCUCAACACAGCGUGGCAAAGUGGCUGUGGCUAGACUGCCUCUCUGGAUUCCUCGUCACUCAGCAGGGCAUCUCUGAGAGAAAUGCC [U1A A50G] | 0.75
AACGUAGGUGGUUUUCCCCUGAUAGUGCUAAGGGGGCCUGGAAGUUGGGACUGGGCAGAGCUCAACACAGCGUGGCAAAGUGGCUGUGGCUAGACUGCCUCUCUGGAUUCCUCGUCACUCAGCAGGGCAUCUCUGAGAGAAAUGCC [U1A U47G] | 1.53
AACGUAGGUGGUUUUCCCCUGAUAGUGCUAAGGGGGCCUGGAAGUUCGGACUGGGCAGAGCUCAACACAGCGUGGCAAAGUGGCUGUGGCUAGACUGCCUCUCUGGAUUCCUCGUCACUCAGCAGGGCAUCUCUGAGAGAAAUGCC [U1A U47C] | 1.02
AACGUAGGUGGUUUUCCCCUGAUAGUGCUAAGGGGGCCUGGAAGUUUGGACUGGGCAGAGCUCGACACAGCGUGGCAAAGUGGCUGUGGCUAGACUGCCUCUCUGGAUUCCUCGUCACUCAGCAGGGCAUCUCUGAGAGAAAUGCC [U1A A64G] | 0.64
AACGUAGGUGGUUUUCCCCUGAUAGUGCUAAGGGGGCCUGGAAGUUUGGACUGGGCAGAGCUCAACACAGCGUGGCAAAGUGGCUGUGGCUAGACUGCCUCUCUGGAUUCCUCGUCACUCAGCAGGCCAUCUCUGAGAGAAAUGCC [U1A G127C] | 1.51
AACGUAGGUGGUUUUCCCCUGAUAGUGCUAAGGGGGCCUGGAAGUUUGGACUGGGCAGAGCUCAACCCAGCGUGGCAAAGUGGCUGUGGCUAGACUGCCUCUCUGGAUUCCUCGUCACUCAGCAGGGCAUCUCUGAGAGAAAUGCC [U1A A67C] | 0.3
AACGUAGGUGGUUUUCCCCUGAUAGUGCUAAGGGGGCCUGGAAGUUUGGACUGGGCAGAGUUCAACACAGCGUGGCAAAGUGGCUGUGGCUAGACUGCCUCUCUGGAUUCCUCGUCACUCAGCAGGGCAUCUCUGAGAGAAAUGCC [U1A C61U] | 0.08
AACGUAGGUGGUUUUCCCCUGAUAGUGCUAAGGGGGCCUGGAAGUUUGGACUGGGCAGAGCUCAACACAGCGUGGCAAAGUGGUUGUGGCUAGACUGCCUCUCUGGAUUCCUCGUCACUCAGCAGGGCAUCUCUGAGAGAAAUGCC [U1A C84U] | 0.22
AACGUAGGUGGUUUUCCCCUGAUAGUGCUAAGGGGGCCUAGAAGUUUGGACUGGGCAGAGCUCAACACAGCGUGGCAAAGUGGCUGUGGCUAGACUGCCUCUCUGGAUUCCUCGUCACUCAGCAGGGCAUCUCUGAGAGAAAUGCC [U1A G40A] | 1.26
AACGUAGGUGGUUUUCCCCUGAUAGUGCUAAGGGGGCCUGGAAGUUUGGACUGGGCAGAGCUCAACACAGCGUGGCAAAGUGGCUGUGGCUAGACUGCCUCUCUGGAUUCCUCGUCACUCAGCAGCGCAUCUCUGAGAGAAAUGCC [U1A G126C] | 1.06
AACGUAGGUGGUUUUCCCCUGAUAGUGCUAGGGGGGCCUGGAAGUUUGGACUGGGCAGAGCUCAACACAGCGUGGCAAAGUGGCUGUGGCUAGACUGCCUCUCUGGAUUCCUCGUCACUCAGCAGGGCAUCUCUGAGAGAAAUGCC [U1A A31G] | 1.26
AACGUAGGUGGUUUUCCCCUGAUUGUGCUAAGGGGGCCUGGAAGUUUGGACUGGGCAGAGCUCAACACAGCGUGGCAAAGUGGCUGUGGCUAGACUGCCUCUCUGGAUUCCUCGUCACUCAGCAGGGCAUCUCUGAGAGAAAUGCC [U1A A24U] | 1.28
AACGUAGGUGGUUUUCCCCUGAUAGUGCUAAGGGGGCCUGGAAGUUUGGACUGGGCAGAGCUCAACACAGCGUGGCAAAGUGGCUGUGGCUAGACUGCCUCUCUGGAUUCCUCGUCACUCAGCAGGGCAUCUCUGAGAGAUAUGCC [U1A A141U] | 1.42
AACGUAGGUGGUUUUCCCCUGAUAGUGCUAAGGGGGCCUGGAAGUUUGGACUGGGCAGAGCUCAACACAGCGUGGCAAAGUGGCUGUGGCUAGACUGCCUCUCUGGAUUCCUCGUCACUCAGCAGGGCCUCUCUGAGAGAAAUGCC [U1A A129C] | 2.51

Variant | self-cleavage
AACGUAGGUGGUUUUCCCCUGAUAGUGCUAAGGGGGCCUGGAAGUUUGGACUGGGCAGAGCUCAACACAGCGUGGCAAAGUGGCUGUGGCUAGACUGCCUCUCUGAAUUCCUCGUCACUCAGCAGGGCAUCUCUGAGAGAAAUGCC [U1A G106A] | 1.44
AACGUAGGUGGUUUUCCCCUGAUAGUGCUAAGGGGGCCUGGAAGUUUGGACUGGGCAGAGCUCAACACAGCGUGGCAAAGUGGCUGUGGCUAGACUGCCUCUCUGGGUUCCUCGUCACUCAGCAGGGCAUCUCUGAGAGAAAUGCC [U1A A107G] | 1.67
AACGUAGGUGGUUUUCCCCUGAUAGUGCUAAGGGGGCCUGGAAGUUUGGACUGGGCAGAGCUCAACACACCGUGGCAAAGUGGCUGUGGCUAGACUGCCUCUCUGGAUUCCUCGUCACUCAGCAGGGCAUCUCUGAGAGAAAUGCC [U1A G70C] | 0.43
AACGUAGGUGGUUUUCCCCUGACAGUGCUAAGGGGGCCUGGAAGUUUGGACUGGGCAGAGCUCAACACAGCGUGGCAAAGUGGCUGUGGCUAGACUGCCUCUCUGGAUUCCUCGUCACUCAGCAGGGCAUCUCUGAGAGAAAUGCC [U1A U23C] | 2.04
AACGUAGGUGGUUUUCCCCUGAUAGUGCUAAGGGGGCCUGGAAGUUUGGACUGGGCAGAGCUCAACACAGCGUGGCAAAGUGGCGGUGGCUAGACUGCCUCUCUGGAUUCCUCGUCACUCAGCAGGGCAUCUCUGAGAGAAAUGCC [U1A U85G] | 0.12
AACGUAGGUGGUUUUCCCCUGAUAGUGCUAAGGGGGCCUGGAAGUGUGGACUGGGCAGAGCUCAACACAGCGUGGCAAAGUGGCUGUGGCUAGACUGCCUCUCUGGAUUCCUCGUCACUCAGCAGGGCAUCUCUGAGAGAAAUGCC [U1A U46G] | 0.96
AACGUAGGUGGUUUUCCCCUGAUAGUGCUAAGGGGGCCUGGGAGUUUGGACUGGGCAGAGCUCAACACAGCGUGGCAAAGUGGCUGUGGCUAGACUGCCUCUCUGGAUUCCUCGUCACUCAGCAGGGCAUCUCUGAGAGAAAUGCC [U1A A42G] | 1.35
AACGUAGGUGGUUUUCCCCUGAUAGUGCUAAGGGGGCCUGGAAGUUUGGACUGGGCAGAGCUCAACACAGCGUGGCAAAGUGGCUGUGGCUAGACUGCCUCUCUGGAUUCCUCGUCACUCAGCAGGGCAUCUCUGAGGGAAAUGCC [U1A A138G] | 1.05
AACGUAGGUGGUUUUCCCCUGAUAGCGCUAAGGGGGCCUGGAAGUUUGGACUGGGCAGAGCUCAACACAGCGUGGCAAAGUGGCUGUGGCUAGACUGCCUCUCUGGAUUCCUCGUCACUCAGCAGGGCAUCUCUGAGAGAAAUGCC [U1A U26C] | 1.93
AACGUAGGUGGUUUUCCCCUGAUAGUGCUAAGGGGGCCUGGAAGUUUGGACCGGGCAGAGCUCAACACAGCGUGGCAAAGUGGCUGUGGCUAGACUGCCUCUCUGGAUUCCUCGUCACUCAGCAGGGCAUCUCUGAGAGAAAUGCC [U1A U52C] | 1.64
AACGUAGGUGAUUUUCCCCUGAUAGUGCUAAGGGGGCCUGGAAGUUUGGACUGGGCAGAGCUCAACACAGCGUGGCAAAGUGGCUGUGGCUAGACUGCCUCUCUGGAUUCCUCGUCACUCAGCAGGGCAUCUCUGAGAGAAAUGCC [U1A G11A] | 1.76
AACGUAGGUGGUUUUCCCCUGAUACUGCUAAGGGGGCCUGGAAGUUUGGACUGGGCAGAGCUCAACACAGCGUGGCAAAGUGGCUGUGGCUAGACUGCCUCUCUGGAUUCCUCGUCACUCAGCAGGGCAUCUCUGAGAGAAAUGCC [U1A G25C] | 1.2
AACGUAGGUGGUUUUCCCCUGAUAGUGCUAAGGGGGCCUGGAUGUUUGGACUGGGCAGAGCUCAACACAGCGUGGCAAAGUGGCUGUGGCUAGACUGCCUCUCUGGAUUCCUCGUCACUCAGCAGGGCAUCUCUGAGAGAAAUGCC [U1A A43U] | 0.68
AACGUAGGUGGGUUUCCCCUGAUAGUGCUAAGGGGGCCUGGAAGUUUGGACUGGGCAGAGCUCAACACAGCGUGGCAAAGUGGCUGUGGCUAGACUGCCUCUCUGGAUUCCUCGUCACUCAGCAGGGCAUCUCUGAGAGAAAUGCC [U1A U12G] | 0.97
AACGUAGGUGGUUUUCCCCUGAUAGUGCUAAGGGGGCCUGGAAGUUUGGACUGGGCAGAGCUCAACACAGCGUGGCAAAGUGGCUGCGGCUAGACUGCCUCUCUGGAUUCCUCGUCACUCAGCAGGGCAUCUCUGAGAGAAAUGCC [U1A U87C] | 0.5
AACGUAGGUGGUUUUCCCCAGAUAGUGCUAAGGGGGCCUGGAAGUUUGGACUGGGCAGAGCUCAACACAGCGUGGCAAAGUGGCUGUGGCUAGACUGCCUCUCUGGAUUCCUCGUCACUCAGCAGGGCAUCUCUGAGAGAAAUGCC [U1A U20A] | 0.81
AACGUAGGUGGUUUUCCCCUGAUAGUGCUAAGGGGGCCUGGAAGUUUGGACUGGGCAGAGCUCAACACAGCGUGGCAAAGUGGCUGUGGCUAGACUGCCUCUCUGGAUUCCUCGUCACUCAGCAGGGCAUCUCUGAGAGAAAUGCC [U1A] | 1.17
AACGUAGGUGGUUUUCCCCUGAUAGUGCUAAGGGGGCCUGGAAGUUUGGACUGGGCAGAGCUCAACACAGCGUGGCAAAGUGGCUGUGGCAAGACUGCCUCUCUGGAUUCCUCGUCACUCAGCAGGGCAUCUCUGAGAGAAAUGCC [U1A U91A] | 1.27
AACGUAGGUGGUUUUCCCCUGAUAGUGCUAAGGGGGCCUGGAAGUUUGGACUGGGCAGAGCUCAACACAGCGUGGCAAAGUGGCUGUGGCCAGACUGCCUCUCUGGAUUCCUCGUCACUCAGCAGGGCAUCUCUGAGAGAAAUGCC [U1A U91C] | 0.15
